From patent publication US20260274985A1 (MYTHIC THERAPEUTICS, published 2026) come the findings set out here.

Sequences and labels used below:
T1: Human TROP2 Protein, His Tag (Acro Biosystems) (human, UniProt P09758 27-274)
T1 construct: Bought antigen used at 50 nM in the Octet screen; also called TACSTD2; not shown: His tag
T1 sequence (looked up): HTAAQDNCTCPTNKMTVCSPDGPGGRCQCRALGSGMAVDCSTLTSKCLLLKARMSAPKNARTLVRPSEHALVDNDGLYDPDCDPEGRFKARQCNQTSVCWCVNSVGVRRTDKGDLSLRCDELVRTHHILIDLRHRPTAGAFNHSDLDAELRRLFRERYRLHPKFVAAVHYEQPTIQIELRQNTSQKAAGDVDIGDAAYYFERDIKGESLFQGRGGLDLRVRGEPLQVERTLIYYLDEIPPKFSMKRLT

B1: MYT11705 (antibody, V domains shown)
VH: QVQLQESGPGLVKPSETLSLTCTVSHGSISSYGVHWIRQPPGKGLEWIGVIWTSGVTDYNSALMGRVTISVDTSKNQFSLKLSSVTAADTAVYYCARDGDYDRYTMDYWGQGTLVTVSS
VL: DIVMTQSPDSLAVSLGERATINCRASKSVSTSGYSYMHWYQQKPGQPPKLLIYLASNLESGVPDRFSGSGSGTDFTLTISSLQAEDVAVYYCQHSRELPYTFGQGTKLEIK
notes: hu7E6SVG variant, His at HCV position 26 (H1 01); screened as IgG in Expi293 supernatant
B2: MYT11709 (antibody, V domains shown)
VH: QVQLQESGPGLVKPSETLSLTCTVSGGSIHSYGVHWIRQPPGKGLEWIGVIWTSGVTDYNSALMGRVTISVDTSKNQFSLKLSSVTAADTAVYYCARDGDYDRYTMDYWGQGTLVTVSS
VL: DIVMTQSPDSLAVSLGERATINCRASKSVSTSGYSYMHWYQQKPGQPPKLLIYLASNLESGVPDRFSGSGSGTDFTLTISSLQAEDVAVYYCQHSRELPYTFGQGTKLEIK
notes: hu7E6SVG variant, His at HCV position 30 (H1 05); screened as IgG in Expi293 supernatant
B3: MYT11720 (antibody, V domains shown)
VH: QVQLQESGPGLVKPSETLSLTCTVSGGSISSYGVHWIRQPPGKGLEWIGVIWTSHVTDYNSALMGRVTISVDTSKNQFSLKLSSVTAADTAVYYCARDGDYDRYTMDYWGQGTLVTVSS
VL: DIVMTQSPDSLAVSLGERATINCRASKSVSTSGYSYMHWYQQKPGQPPKLLIYLASNLESGVPDRFSGSGSGTDFTLTISSLQAEDVAVYYCQHSRELPYTFGQGTKLEIK
notes: hu7E6SVG variant, His at HCV position 55 (H2 06); screened as IgG in Expi293 supernatant
B4: MYT11710 (antibody, V domains shown)
VH: QVQLQESGPGLVKPSETLSLTCTVSGGSISHYGVHWIRQPPGKGLEWIGVIWTSGVTDYNSALMGRVTISVDTSKNQFSLKLSSVTAADTAVYYCARDGDYDRYTMDYWGQGTLVTVSS
VL: DIVMTQSPDSLAVSLGERATINCRASKSVSTSGYSYMHWYQQKPGQPPKLLIYLASNLESGVPDRFSGSGSGTDFTLTISSLQAEDVAVYYCQHSRELPYTFGQGTKLEIK
notes: hu7E6SVG variant, His at HCV position 31 (H1 06); screened as IgG in Expi293 supernatant
B5: MYT11711 (antibody, V domains shown)
VH: QVQLQESGPGLVKPSETLSLTCTVSGGSISSHGVHWIRQPPGKGLEWIGVIWTSGVTDYNSALMGRVTISVDTSKNQFSLKLSSVTAADTAVYYCARDGDYDRYTMDYWGQGTLVTVSS
VL: DIVMTQSPDSLAVSLGERATINCRASKSVSTSGYSYMHWYQQKPGQPPKLLIYLASNLESGVPDRFSGSGSGTDFTLTISSLQAEDVAVYYCQHSRELPYTFGQGTKLEIK
notes: hu7E6SVG variant, His at HCV position 32 (H1 07); screened as IgG in Expi293 supernatant
B6: MYT11721 (antibody, V domains shown)
VH: QVQLQESGPGLVKPSETLSLTCTVSGGSISSYGVHWIRQPPGKGLEWIGVIWTSGHTDYNSALMGRVTISVDTSKNQFSLKLSSVTAADTAVYYCARDGDYDRYTMDYWGQGTLVTVSS
VL: DIVMTQSPDSLAVSLGERATINCRASKSVSTSGYSYMHWYQQKPGQPPKLLIYLASNLESGVPDRFSGSGSGTDFTLTISSLQAEDVAVYYCQHSRELPYTFGQGTKLEIK
notes: hu7E6SVG variant, His at HCV position 56 (H2 07); screened as IgG in Expi293 supernatant
B7: MYT11715 (antibody, V domains shown)
VH: QVQLQESGPGLVKPSETLSLTCTVSGGSISSYGVHWIRQPPGKGLEWIGHIWTSGVTDYNSALMGRVTISVDTSKNQFSLKLSSVTAADTAVYYCARDGDYDRYTMDYWGQGTLVTVSS
VL: DIVMTQSPDSLAVSLGERATINCRASKSVSTSGYSYMHWYQQKPGQPPKLLIYLASNLESGVPDRFSGSGSGTDFTLTISSLQAEDVAVYYCQHSRELPYTFGQGTKLEIK
notes: hu7E6SVG variant, His at HCV position 50 (H2 01); screened as IgG in Expi293 supernatant
B8: MYT11707 (antibody, V domains shown)
VH: QVQLQESGPGLVKPSETLSLTCTVSGGHISSYGVHWIRQPPGKGLEWIGVIWTSGVTDYNSALMGRVTISVDTSKNQFSLKLSSVTAADTAVYYCARDGDYDRYTMDYWGQGTLVTVSS
VL: DIVMTQSPDSLAVSLGERATINCRASKSVSTSGYSYMHWYQQKPGQPPKLLIYLASNLESGVPDRFSGSGSGTDFTLTISSLQAEDVAVYYCQHSRELPYTFGQGTKLEIK
notes: hu7E6SVG variant, His at HCV position 28 (H1 03); screened as IgG in Expi293 supernatant
B9: MYT11722 (antibody, V domains shown)
VH: QVQLQESGPGLVKPSETLSLTCTVSGGSISSYGVHWIRQPPGKGLEWIGVIWTSGVHDYNSALMGRVTISVDTSKNQFSLKLSSVTAADTAVYYCARDGDYDRYTMDYWGQGTLVTVSS
VL: DIVMTQSPDSLAVSLGERATINCRASKSVSTSGYSYMHWYQQKPGQPPKLLIYLASNLESGVPDRFSGSGSGTDFTLTISSLQAEDVAVYYCQHSRELPYTFGQGTKLEIK
notes: hu7E6SVG variant, His at HCV position 57 (H2 08); screened as IgG in Expi293 supernatant
B10: MYT11712 (antibody, V domains shown)
VH: QVQLQESGPGLVKPSETLSLTCTVSGGSISSYHVHWIRQPPGKGLEWIGVIWTSGVTDYNSALMGRVTISVDTSKNQFSLKLSSVTAADTAVYYCARDGDYDRYTMDYWGQGTLVTVSS
VL: DIVMTQSPDSLAVSLGERATINCRASKSVSTSGYSYMHWYQQKPGQPPKLLIYLASNLESGVPDRFSGSGSGTDFTLTISSLQAEDVAVYYCQHSRELPYTFGQGTKLEIK
notes: hu7E6SVG variant, His at HCV position 33 (H1 08); screened as IgG in Expi293 supernatant
B11: MYT11706 (antibody, V domains shown)
VH: QVQLQESGPGLVKPSETLSLTCTVSGHSISSYGVHWIRQPPGKGLEWIGVIWTSGVTDYNSALMGRVTISVDTSKNQFSLKLSSVTAADTAVYYCARDGDYDRYTMDYWGQGTLVTVSS
VL: DIVMTQSPDSLAVSLGERATINCRASKSVSTSGYSYMHWYQQKPGQPPKLLIYLASNLESGVPDRFSGSGSGTDFTLTISSLQAEDVAVYYCQHSRELPYTFGQGTKLEIK
notes: hu7E6SVG variant, His at HCV position 27 (H1 02); screened as IgG in Expi293 supernatant
B12: MYT11718 (antibody, V domains shown)
VH: QVQLQESGPGLVKPSETLSLTCTVSGGSISSYGVHWIRQPPGKGLEWIGVIWHSGVTDYNSALMGRVTISVDTSKNQFSLKLSSVTAADTAVYYCARDGDYDRYTMDYWGQGTLVTVSS
VL: DIVMTQSPDSLAVSLGERATINCRASKSVSTSGYSYMHWYQQKPGQPPKLLIYLASNLESGVPDRFSGSGSGTDFTLTISSLQAEDVAVYYCQHSRELPYTFGQGTKLEIK
notes: hu7E6SVG variant, His at HCV position 53 (H2 04); screened as IgG in Expi293 supernatant
B13: MYT11719 (antibody, V domains shown)
VH: QVQLQESGPGLVKPSETLSLTCTVSGGSISSYGVHWIRQPPGKGLEWIGVIWTHGVTDYNSALMGRVTISVDTSKNQFSLKLSSVTAADTAVYYCARDGDYDRYTMDYWGQGTLVTVSS
VL: DIVMTQSPDSLAVSLGERATINCRASKSVSTSGYSYMHWYQQKPGQPPKLLIYLASNLESGVPDRFSGSGSGTDFTLTISSLQAEDVAVYYCQHSRELPYTFGQGTKLEIK
notes: hu7E6SVG variant, His at HCV position 54 (H2 05); screened as IgG in Expi293 supernatant
B14: MYT11714 (antibody, V domains shown)
VH: QVQLQESGPGLVKPSETLSLTCTVSGGSISSYGVAWIRQPPGKGLEWIGVIWTSGVTDYNSALMGRVTISVDTSKNQFSLKLSSVTAADTAVYYCARDGDYDRYTMDYWGQGTLVTVSS
VL: DIVMTQSPDSLAVSLGERATINCRASKSVSTSGYSYMHWYQQKPGQPPKLLIYLASNLESGVPDRFSGSGSGTDFTLTISSLQAEDVAVYYCQHSRELPYTFGQGTKLEIK
notes: hu7E6SVG variant, Ala in place of His at HCV position 35 (H1 10); screened as IgG in Expi293 supernatant
B15: MYT11708 (antibody, V domains shown)
VH: QVQLQESGPGLVKPSETLSLTCTVSGGSHSSYGVHWIRQPPGKGLEWIGVIWTSGVTDYNSALMGRVTISVDTSKNQFSLKLSSVTAADTAVYYCARDGDYDRYTMDYWGQGTLVTVSS
VL: DIVMTQSPDSLAVSLGERATINCRASKSVSTSGYSYMHWYQQKPGQPPKLLIYLASNLESGVPDRFSGSGSGTDFTLTISSLQAEDVAVYYCQHSRELPYTFGQGTKLEIK
notes: hu7E6SVG variant, His at HCV position 29 (H1 04); screened as IgG in Expi293 supernatant
B16: MYT11716 (antibody, V domains shown)
VH: QVQLQESGPGLVKPSETLSLTCTVSGGSISSYGVHWIRQPPGKGLEWIGVHWTSGVTDYNSALMGRVTISVDTSKNQFSLKLSSVTAADTAVYYCARDGDYDRYTMDYWGQGTLVTVSS
VL: DIVMTQSPDSLAVSLGERATINCRASKSVSTSGYSYMHWYQQKPGQPPKLLIYLASNLESGVPDRFSGSGSGTDFTLTISSLQAEDVAVYYCQHSRELPYTFGQGTKLEIK
notes: hu7E6SVG variant, His at HCV position 51 (H2 02); screened as IgG in Expi293 supernatant
B17: MYT11713 (antibody, V domains shown)
VH: QVQLQESGPGLVKPSETLSLTCTVSGGSISSYGHHWIRQPPGKGLEWIGVIWTSGVTDYNSALMGRVTISVDTSKNQFSLKLSSVTAADTAVYYCARDGDYDRYTMDYWGQGTLVTVSS
VL: DIVMTQSPDSLAVSLGERATINCRASKSVSTSGYSYMHWYQQKPGQPPKLLIYLASNLESGVPDRFSGSGSGTDFTLTISSLQAEDVAVYYCQHSRELPYTFGQGTKLEIK
notes: hu7E6SVG variant, His at HCV position 34 (H1 09); screened as IgG in Expi293 supernatant

The experiment has as its target T1, Human TROP2 Protein, His Tag (Acro …). The experiment in a line: BLI (Octet) [1/2]. The procedure: After allowing for four days of protein expression, cell culture supernatants were collected, quantified by SDS-PAGE analysis (DNS), and the pH dependence of the variant was evaluated using biolayer interferometry (BLI) on an Octet RED 96e instrument. Briefly, cell culture supernatants were diluted based on qualitative expression level of the variant determined by visual examination of SDS-PAGE gels, 5 μL of cell culture supernatant was diluted into 195 μL of 1×PBST, pH 7.4 for high expressors, 25 μL of cell culture supernatant was diluted into 175 μL of 1×PBST, pH 7.4 for medium expressors and 100 μL of cell culture supernatant was diluted into 100 μL of 1×PBST, pH 7.4 for low expressors for loading onto the sensor tips. The resulting diluted supernatants were then captured on an anti-human Fc sensor (Forte Bio). A baseline was established using 1×PBST (50 mM Potassium Phosphate Buffer+150 mM NaCl+0.05% Tween 20) pH 7.4, and the sensor was associated with 50 nM of TROP2 (Human TROP2 Protein, His Tag, Acro Biosystems) in 1×PBST pH 7.4 for 120 sec to generate an association curve. In the dissociation phase, the antibody-antigen complex on the sensor was exposed to 1×PBST pH 7.4 or pH 5.4, for 300 sec. Association and dissociation phase curves were examined for the starting ABPC antibody (with no substitutions) and each corresponding antibody variant at pH 5.4 and pH 7.4 to inform on two criteria: a) enhanced dissociation (i.e., higher koff values) at pH 5.4 due to histidine or alanine substitution compared to the starting ABPC, (with no substitutions), and b) reduced dissociation at pH 7.4 (i.e., lower koff values) compared to pH 5.4 in the antibody variant itself and with the starting ABPC (with no substitutions). […] It was also noted that while some mutations obliterated TROP2 binding, others were tolerated with little or n change in TROP2 binding kinetics.
For orientation: Biolayer interferometry detects binding as a change in optical thickness at a sensor tip.
On to B1, for which the binding result is reported as “binds”.

Regarding B2, the binding result is recorded as “binds”. In the case of B3, the binding result is on record as “binds”. For B4 the value was “binds”; for B5, “binds”. For B6, the binding result is given as “binds”. As for B7, the binding result was “no binding (tested: 50 nM)”. With B8, the binding result is “binds”. The result for B9 reads “binds”; that for B10, “binds”. In the case of B11, the binding result was “binds”. Consider B12, for which the binding result was “binds”. Consider B13, for which the binding result is given as “binds”. For the molecule B14, the binding result is “binds”.

With B15, the binding result is listed as “binds”. As to B16, the binding result is reported as “binds”.

Take B17: the binding result was “binds”.
